This passage reports Kd, koff and kon results from patent EP4653869A1 (Nantes Université, dated 2025).

The target of this assay is T1, recombinant human interleukin-34 (IL-34) (human, UniProt Q6ZMJ4 21-242).
T1 construct: Bought recombinant protein; also called hIL34
T1 sequence (looked up): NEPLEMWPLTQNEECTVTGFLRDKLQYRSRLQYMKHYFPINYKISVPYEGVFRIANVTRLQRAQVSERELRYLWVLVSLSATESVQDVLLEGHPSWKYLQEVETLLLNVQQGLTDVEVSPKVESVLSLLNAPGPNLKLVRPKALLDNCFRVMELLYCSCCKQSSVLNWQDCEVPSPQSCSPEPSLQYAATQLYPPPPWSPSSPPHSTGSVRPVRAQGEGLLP
Put plainly: SPR (Biacore T200), BMP immobilized on CM5 chip, IL-34 as analyte, single cycle titration, bivalent fitting model.

B1: recombinant human bone morphogenetic protein 2 (BMP-2) (ligand, UniProt P12643 283-396, looked up)
chain: QAKHKQRKRLKSSCKRHPLYVDFSDVGWNDWIVAPPGYHAFYCHGECPFPLADHLNSTNHAIVQTLVNSVNSKIPKACCVPTELSAISMLYLDENEKVVLKNYQDMVVEGCGCR
notes: Immobilized on a CM5 chip by amine coupling in the SPR assay
For orientation: koff means the first-order rate constant of dissociation. The term kon denotes the second-order rate constant of association. Regarding B1, the Kd was 363 nM, the koff came out at 0.0229 s⁻¹ and the kon came to 63100 M⁻¹ s⁻¹.

B2: recombinant human bone morphogenetic protein 7 (BMP-7) (ligand, UniProt P18075 293-431, looked up)
chain: STGSKQRSQNRSKTPKNQEALRMANVAENSSSDQRQACKKHELYVSFRDLGWQDWIIAPEGYAAYYCEGECAFPLNSYMNATNHAIVQTLVHFINPETVPKPCCAPTQLNAISVLYFDDSSNVILKKYRNMVVRACGCH
notes: as for B1
In the case of B2, the Kd was 922 nM, the koff turned out to be 0.0561 s⁻¹ and the kon came out at 60800 M⁻¹ s⁻¹.

B3: recombinant human bone morphogenetic protein 4 (BMP-4) (ligand, UniProt P12644 293-408, looked up)
chain: SPKHHSQRARKKNKNCRRHSLYVDFSDVGWNDWIVAPPGYQAFYCHGDCPFPLADHLNSTNHAIVQTLVNSVNSSIPKACCVPTELSAISMLYLDEYDKVVLKNYQEMVVEGCGCR
notes: as for B1
B3: the Kd came to 426 nM, the koff was determined as 0.0467 s⁻¹ and the kon came out at 110000 M⁻¹ s⁻¹.
